Earlier results on two substances are cited in article PMC10474648, “Design of chimeric GLP-1A using oligomeric bile acids to utilize transporter-mediated endocytosis for oral delivery” (Biomaterials Research, 2023).

Series [1] has as its target GLP-1R. As to conditions: read-out: Kd, GLP-1R binding; cited from earlier work. The text has this: Cellular penetration may occur by two pathways: the paracellular and transcellular pathways. […] Additionally, ...
The conditions of series [2]: cited from earlier work. The source says: Diabetes is a representative chronic disease that requires lifetime management. Because of the need for frequent and combination dosing, most hypoglycemic therapeutics are small molecule-based oral drugs.

Usually Kd stands for the equilibrium constant for the complex coming apart. In the case of semaglutide, the Kd in series [1] is 0.38 nM. The Half-life in series [2] is 170 h.
In the case of dulaglutide, in series [2], the Half-life is 120 h.
